The target of experiment [1] is N36 peptide of HIV-1 gp41 (HIV-1). The experiment can be described thus: circular dichroism at 222 nm, thermal melt.
The target is the same in experiment [2]. Nature of the experiment: circular dichroism at 222 nm, thermal melt, 10 µM of each peptide, PBS pH 7.0.
Experiment [3] addresses T1, HIV-1 HXB2 envelope glycoprotein (gp41 subunit, N-helix coiled-coil) (HIV-1 (HXB2), UniProt P04578 512-856). Nature of the experiment: cell-based or functional assay.
In experiment [4] the target is T1, HIV-1 HXB2 envelope glycoprotein (gp41 …). The experiment can be described thus: cell-based or functional assay. The source holds these as a separate data set.

On to C34 Trp^631→Abu (peptide), for which the Tm (apparent melting temperature of the N36/C34 complex) in experiment [1] is 43 °C.

On to C34 Met^629→Ala (peptide), for which, in experiment [2], the Tm (apparent melting temperature of the N36/C34 complex) turned out to be 66 °C.

Turning to C34 Trp^628→Ala (peptide), the Tm (apparent melting temperature of the N36/C34 complex) in experiment [2] came to 53 °C.

Regarding C34 Ile^635→Ala (peptide), the Tm (apparent melting temperature of the N36/C34 complex) in experiment [2] was 55 °C.

With C34 Trp^631→Ala (peptide), the Tm (apparent melting temperature of the N36/C34 complex) in experiment [2] came out at 37 °C.

C34 Arg^633→Ala (peptide): the Tm (apparent melting temperature of the N36/C34 complex) in experiment [2] is 65 °C.

Take C34 peptide of HIV-1 gp41, wildtype: the Tm (apparent melting temperature of the N36/C34 complex) in experiment [2] is 66 °C.

Take C34 Trp^631→Phe (peptide): the Tm (apparent melting temperature of the N36/C34 complex) in experiment [1] was determined as 59 °C.

As for C34 Trp^631→Leu (peptide), in experiment [1], the Tm (apparent melting temperature of the N36/C34 complex) amounted to 50 °C.

In the case of C34 Trp^631→Nal (peptide), in experiment [1], the Tm (apparent melting temperature of the N36/C34 complex) worked out at 62 °C.

Take C34 Trp^631→Val (peptide): the Tm (apparent melting temperature of the N36/C34 complex) in experiment [1] is 43 °C.

With C34 Trp^631→Gly (peptide), the Tm (apparent melting temperature of the N36/C34 complex) in experiment [1] is 35 °C.

Take Ac-WMEADREINNYTSLIHSLIEESQNQQEKNEQELL-NH2 [C34 Trp^631→Ala]: the “decrease in inhibitory activity against wildtype C34” value in experiment [3] is approximately 30 fold.

For Ac-WMEGDREINNYTSLIHSLIEESQNQQEKNEQELL-NH2 [C34 Trp^631→Gly], in experiment [3], the “IC50 (nanomolar) cell fusion” value amounted to 25 nM and the “IC50 (nanomolar) virus entry” value amounted to 38 nM.

For Ac-WMEWDAEINNYTSLIHSLIEESQNQQEKNEQELL-NH2 [C34 Arg^633→Ala], in experiment [4], the “IC50 (nM) cell fusion” value came out at 0.76 nM and the “IC50 (nM) viral entry” value stood at 2.6 nM.

Take Ac-WMEVDREINNYTSLIHSLIEESQNQQEKNEQELL-NH2 [C34 Trp^631→Val]: in experiment [3], the “IC50 (nanomolar) cell fusion” value stood at 4.5 nM and the “IC50 (nanomolar) virus entry” value was 13 nM.

Regarding Ac-WMEWDREANNYTSLIHSLIEESQNQQEKNEQELL-NH2 [C34 Ile^635→Ala], the “decrease in inhibitory activity against wildtype C34” value in experiment [3] was approximately 2 fold. For the same molecule, in experiment [4], the “IC50 (nM) cell fusion” value turned out to be 0.96 nM and the “IC50 (nM) viral entry” value came to 4.1 nM.

Take Ac-WMELDREINNYTSLIHSLIEESQNQQEKNEQELL-NH2 [C34 Trp^631→Leu]: in experiment [3], the “IC50 (nanomolar) cell fusion” value came to 3.2 nM and the “IC50 (nanomolar) virus entry” value was determined as 5.3 nM.

Turning to Ac-WMEFDREINNYTSLIHSLIEESQNQQEKNEQELL-NH2 [C34 Trp^631→Phe], in experiment [3], the “IC50 (nanomolar) cell fusion” value stood at 1.6 nM and the “IC50 (nanomolar) virus entry” value came out at 3.6 nM.

Values taken from patent EP1100818B1 (WHITEHEAD INSTITUTE FOR BIOMEDICAL RESEARCH, dated 2013).
